The values below come from publication PMC4782291, “Comparative characterization of two GDP-mannose dehydrogenase genes from Saccharina japonica (Laminariales, Phaeophyceae)” (BMC Plant Biology, 2016).

Substrate in data set [1]: NC(=O)c1ccc[n+]([C@@H]2O[C@H](COP(=O)(O)OP(=O)(O)OC[C@H]3O[C@@H](n4cnc5c(N)ncnc54)[C@H](O)[C@@H]3O)[C@@H](O)[C@H]2O)c1
Description: purified protein. The format is biochemical, Saccharina japonica. To be noted: 100 mM Tris-HCl, co-substrate GDP-mannose, MBP fusion, varied: cofactor.

Substrate in data set [2]: Nc1nc2c(ncn2[C@@H]2O[C@H](COP(=O)(O)OP(=O)(O)O[C@H]3O[C@H](CO)[C@@H](O)[C@H](O)[C@@H]3O)[C@@H](O)[C@H]2O)c(=O)[nH]1
Description: purified protein. The format is biochemical, Saccharina japonica. The settings on record: 100 mM Tris-HCl, co-substrate NAD+, MBP fusion.

Where [3] appears, read: optimal conditions (pH 8.25, 20 °C).
The mark [4] stands for this setting: optimal conditions (pH 8.0, 30 °C).

B1: SjGMD2 (Saccharina japonica) (protein)
chain: MSGKENVVQIGCGVVGGAYAKAYVHHGFSLTGFDVVPAIIGNMNEAGIKCFHPDDCPADLNADIVLLSVPTPLIKETQRLDMKYVWSTIPLVVKLVEQSSGLAPILVIRSTVPPGTTLKWEAEVRAKTDKPFKVAFQPEFLRAVSCEEDARAPWQIVFGCAKDADETRTRMSNCFLDFVGRDEAKLTVLNIAEAEFMKLVHNYANGLKISFANCIYGLAHELDPTIDAQKVLYLVSSTAECYLSRKYGLRVGAPYGGVCLPKDVPELTSLAPEGSVFREFLAGTGKINEWITNTPNLKVELTESPNWVSPSELII
One may read the Km as the substrate concentration at which the rate is half of its maximum. Turning to B1, the values for the Km in the data set “purified protein [1]” (setting [3]) and in the data set “purified protein [2]” (setting [3]) were 195 µM and 177 µM, respectively.

B2: SjGMD1 (Saccharina japonica) (protein)
chain: MAEVMPKESIIQIGCGVVGGAYAKAYKHHGFSVRGFDVVPSIIEKMNDAGIPCCHPDDCPEDLNPEIVLLSVPTPLIKETQRLDMKYVWSTVPLVLKLVEQSTGPAPIFVIRSTVPPGMTKEWMAAVKEKATKPFHVAFQPEFLRAVSCEEDARAPWQVVFGYMTGEEEVKARMTNAFLEFVGRDESKLTVLNIAEAEFMKLAHNYANGLKISFANCIYGLANQLDPTIDAQKVLYLVSSTAECFLSRKYGLRVGAPYGGVCLPKDVPELTSLAPEGSVFREFLAGTGKINEWISGPEAKNMRVELDESPNWVSPDSLTT
As to B2, the values for the Km in “purified protein [1]” (setting [4]) and in the data set “purified protein [2]” (setting [4]) were 139 µM and 289 µM, respectively.
